T1: His-tagged recombinant Mouse TIGIT (mouse, UniProt P86176 29-148, limits assumed)
T1 construct: not shown: His tag
T1 sequence (looked up): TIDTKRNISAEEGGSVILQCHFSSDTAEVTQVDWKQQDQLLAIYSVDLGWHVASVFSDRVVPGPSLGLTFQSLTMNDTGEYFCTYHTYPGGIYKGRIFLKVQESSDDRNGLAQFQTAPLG

B1: Ab11 (Fab, V domains shown)
VH: EVQLLESGGGLVQPGGSLRLSCAASGFTFSSYGMHWVRQAPGKGLEWVASISSNGGYTSYADSVKGRFTISRDNSKNTLYLQMNSLRAEDTAVYYCARVPYGYWIDYWGQGTLVTVSS
VL: not shown
notes: ARV set
B2: Ab88 (Fab, V domains shown)
VH: EVQLLESGGGLVQPGGSLRLSCAASGFTFSSYSMSWVRQAPGKGLEWVASISSSAGTTSYADSVKGRFTISRDNSKNTLYLQMNSLRAEDTAVYYCARVPYGVWIDYWGQGTLVTVSS
VL: not shown
notes: ARV set
B3: Ab118 (Fab, V domains shown)
VH: EVQLLESGGGLVQPGGSLRLSCAASGFTFSSYAMSWVRQAPGKGLEWVSSINSNAGTSYYADSVKGRFTISRDNSKNTLYLQMNSLRAEDTAVYYCARVPYGYWMDYWGQGTLVTVSS
VL: not shown
notes: ARV set
B4: Ab35 (Fab, V domains shown)
VH: EVQLLESGGGLVQPGGSLRLSCAASGFTFSSYGMHWVRQAPGKGLEWVASISSSSGYKYYADSVKGRFTISRDNSKNTLYLQMNSLRAEDTAVYYCARVPYSYWMDYWGQGTLVTVSS
VL: not shown
notes: ARV set
B5: Ab33 (Fab, V domains shown)
VH: EVQLLESGGGLVQPGGSLRLSCAASGFTFSSYGMHWVRQAPGKGLEWVSDISSNGGTIYYADSVKGRFTISRDNSKNTLYLQMNSLRAEDTAVYYCARGPYGVWLDYWGQGTLVTVSS
VL: not shown
notes: ARG set
B6: Ab126 (Fab, V domains shown)
VH: EVQLLESGGGLVQPGGSLRLSCAASGFTFSSYAMHWVRQAPGKGLEWVASISSSTGSIGYADSVKGRFTISRDNSKNTLYLQMNSLRAEDTAVYYCARVPYSYWMDYWGQGTLVTVSS
VL: not shown
notes: ARV set
B7: Ab125 (Fab, V domains shown)
VH: EVQLLESGGGLVQPGGSLRLSCAASGFTFSSYSMHWVRQAPGKGLEWVASIKGNAGTTYYADSVKGRFTISRDNSKNTLYLQMNSLRAEDTAVYYCAKVPYDVWMDYWGQGTLVTVSS
VL: not shown
notes: ARV set
B8: Ab5 (Fab, V domains shown)
VH: EVQLLESGGGLVQPGGSLRLSCAASGFTFSDYSMNWVRQAPGKGLEWVALIKSNSGSTSYADSVKGRFTISRDNSKNTLYLQMNSLRAEDTAVYYCARGPYDVWMDYWGQGTLVTVSS
VL: not shown
notes: ARG set
B9: Ab30 (Fab, V domains shown)
VH: EVQLLESGGGLVQPGGSLRLSCAASGFTFSSYGMHWVRQAPGKGLEWVASIKSNSGNTGYADSVKGRFTISRDNSKNTLYLQMNSLRAEDTAVYYCARVPYSVWMDYWGQGTLVTVSS
VL: not shown
notes: ARV set
B10: Ab14 (Fab, V domains shown)
VH: EVQLLESGGGLVQPGGSLRLSCAASGFTFSSYGMHWVRQAPGKGLEWVSSISSSGGTKGYADSVKGRFTISRDNSKNTLYLQMNSLRAEDTAVYYCARVPYDVWMDYWGQGTLVTVSS
VL: not shown
notes: ARV set
B11: Ab182 (Fab, V domains shown)
VH: EVQLLESGGGLVQPGGSLRLSCAASGFTFSSYSMHWVRQAPGKGLEWVASISSNTGTTGYADSVKGRFTISRDNSKNTLYLQMNSLRAEDTAVYYCARVPYGYWIDYWGQGTLVTVSS
VL: not shown
notes: ARV set
B12: Ab62 (Fab, V domains shown)
VH: EVQLLESGGGLVQPGGSLRLSCAASGFTFSSYSMSWVRQAPGKGLEWVASISSSAGYSYYADSVKGRFTISRDNSKNTLYLQMNSLRAEDTAVYYCARVPYDVWIDYWGQGTLVTVSS
VL: not shown
notes: ARV set
B13: Ab112 (Fab, V domains shown)
VH: EVQLLESGGGLVQPGGSLRLSCAASGFTFSSYAMSWVRQAPGKGLEWVASISSNTGSIYYADSVKGRFTISRDNSKNTLYLQMNSLRAEDTAVYYCARVPYSYWLDYWGQGTLVTVSS
VL: not shown
notes: ARV set
B14: Ab196 (Fab, V domains shown)
VH: EVQLLESGGGLVQPGGSLRLSCAASGFTFSSYSMNWVRQAPGKGLEWVSSIKGSAGTTSYADSVKGRFTISRDNSKNTLYLQMNSLRAEDTAVYYCAREPYSVWMDYWGQGTLVTVSS
VL: not shown
notes: ARE set
B15: Ab8 (Fab, V domains shown)
VH: EVQLLESGGGLVQPGGSLRLSCAASGFTFSSYAMSWVRQAPGKGLEWVADIKSNGGYTYYADSVKGRFTISRDNSKNTLYLQMNSLRAEDTAVYYCARVPYGYWLDYWGQGTLVTVSS
VL: not shown
notes: ARV set
B16: Ab9 (Fab, V domains shown)
VH: EVQLLESGGGLVQPGGSLRLSCAASGFTFDSYSMHWVRQAPGKGLEWVANIKSSGGYISYADSVKGRFTISRDNSKNTLYLQMNSLRAEDTAVYYCARGPYDVWMDYWGQGTLVTVSS
VL: not shown
notes: ARG set
B17: Ab37 (Fab, V domains shown)
VH: EVQLLESGGGLVQPGGSLRLSCAASGFTFSSYGMNWVRQAPGKGLEWVSDINSNSGSTSYADSVKGRFTISRDNSKNTLYLQMNSLRAEDTAVYYCARGPYGVWLDYWGQGTLVTVSS
VL: not shown
notes: ARG set
B18: Ab58 (Fab, V domains shown)
VH: EVQLLESGGGLVQPGGSLRLSCAASGFTFSSYAMSWVRQAPGKGLEWVSSIKSSAGSSYYADSVKGRFTISRDNSKNTLYLQMNSLRAEDTAVYYCAREPYDVWIDYWGQGTLVTVSS
VL: not shown
notes: ARE set
B19: Ab192 (Fab, V domains shown)
VH: EVQLLESGGGLVQPGGSLRLSCAASGFTFSSYAMHWVRQAPGKGLEWVSSISSDTGYIGYADSVKGRFTISRDNSKNTLYLQMNSLRAEDTAVYYCARVPYDVWIDYWGQGTLVTVSS
VL: not shown
notes: ARV set
B20: Ab120 (Fab, V domains shown)
VH: EVQLLESGGGLVQPGGSLRLSCAASGFTFSSYSMNWVRQAPGKGLEWVSSINSNAGTIYYADSVKGRFTISRDNSKNTLYLQMNSLRAEDTAVYYCARVPYDYWIDYWGQGTLVTVSS
VL: not shown
notes: ARV set
B21: Ab164 (Fab, V domains shown)
VH: EVQLLESGGGLVQPGGSLRLSCAASGFTFSSYAMSWVRQAPGKGLEWVSYINSNTGSIGYADSVKGRFTISRDNSKNTLYLQMNSLRAEDTAVYYCAREPYGVWMDYWGQGTLVTVSS
VL: not shown
notes: ARE set
B22: Ab190 (Fab, V domains shown)
VH: EVQLLESGGGLVQPGGSLRLSCAASGFTFSSYAMHWVRQAPGKGLEWVAAIKSSAGYSYYADSVKGRFTISRDNSKNTLYLQMNSLRAEDTAVYYCARVPYGVWIDYWGQGTLVTVSS
VL: not shown
notes: ARV set
B23: Ab167 (Fab, V domains shown)
VH: EVQLLESGGGLVQPGGSLRLSCAASGFTFSSYAMHWVRQAPGKGLEWVASISGNAGSSSYADSVKGRFTISRDNSKNTLYLQMNSLRAEDTAVYYCARVPYGVWIDYWGQGTLVTVSS
VL: not shown
notes: ARV set
B24: Ab63 (Fab, V domains shown)
VH: EVQLLESGGGLVQPGGSLRLSCAASGFTFSSYSMHWVRQAPGKGLEWVASISGSTGTSYYADSVKGRFTISRDNSKNTLYLQMNSLRAEDTAVYYCARVPYGYWIDYWGQGTLVTVSS
VL: not shown
notes: ARV set
B25: Ab106 (Fab, V domains shown)
VH: EVQLLESGGGLVQPGGSLRLSCAASGFTFSSYAMNWVRQAPGKGLEWVASIKSSTGTISYADSVKGRFTISRDNSKNTLYLQMNSLRAEDTAVYYCAREPYSVWIDYWGQGTLVTVSS
VL: not shown
notes: ARE set

Target: T1, His-tagged recombinant Mouse TIGIT
Assay: ELISA, coated His-tagged mouse TIGIT
Description: Binding affinities for antigen binding to anti-TIGIT monoclonal antibodies were determined by ELISA. […] Antibodies to be tested were diluted to 1 μM in PBS buffer containing 1% BSA and diluted 3-fold in a 10-point curve. […] Detection of the secondary antibody was determined using streptavidin-HRP and TMB reagent. All assays were performed at room temperature. Curve-fitting software was used to determine the EC₅₀ for each antibody.

Binder	EC50 [nM]
B1	359
B2	407
B3	110
B4	357
B5	85.4
B6	64.1
B7	150
B8	322
B9	135
B10	169
B11	200
B12	361
B13	213
B14	19.5
B15	149
B16	181
B17	221
B18	170
B19	295
B20	254
B21	289
B22	23.4
B23	61.2
B24	178
B25	125

Reference: patent US20200339678A1 (RIGEL PHARMACEUTICALS, published 2020)
